The data set is described as follows: label from the status in PepcDB records.
On to “MMELHDLAEDLPSKWTEIMAVAEKAFRAFAELDAVKRELAESENAQ”, for which the protein production result was “not failed”.
As for “MMEVGILPVHVLYVFFIGAIILFMLLRKDTTFISLFGIFIISLWASHSLSASVSSLFHSFIYAAGELLPTIFIICFIVSMSDLLTKTGINEAMISPFASLVRGPVTAYWLIGGLMFAISLFFWPSPGVALIGAVLLPAAARAGLTPLAAAMAMNLFGHGFALSGDFVIQAAPKLTADAAGIPVGDVVSASIPLVLIMGVTTTTAAFIMIQRERKKQEHPTSFSPVLSGEQDNSLYLPKRLRSILAFLIPLAFLADIACMLLFNLQGNDATALIGGSAICILFTVHFFVYKHKGLEKITGYFIDGFKFGFKVFGPVIPIAAFFYLGDSGYESILGTSLPKGSHGIVNDLGIALSHMMPMSKELAATALTAAGAITGLDGSGFSGISLAGSIAKLFSSALHADPAILTALGQISAIWVGGGTLVPWALIPAAAICKVDPFELARKNFIPVAIGLLVTTLAAVMML”, the protein production entry is recorded as “failed”.
As for “MMFFQVHPHLTDLVIRTLQATWQQFPWLGQEDIALTLLVYPPPIPVNTGGALTAAEFWQYLIPGAHYRGDVPMYPASVVKLFYLVACHEWLHSGMLQPDAELERAMRDMIVDSSNDATSLVVDMLTGTTSGPVLPPEPFRTWQYQRNIVNRYFQSLGWPELTQINVNQKTWCEGPYGREQEFVGRDRQNANRLTTNATAKLIHSIVGGVAVSASASQGMMELMERSLDPELLAQDPENQVQGFLGEGLPPGAKLWSKAGLTSWVRHDAAYIELPDRCPYTLVVFMENSTASKNTEVLPFISRQIASGIPTLEGAGVL”, the entry is “failed”; as for “MMGSVELNLRETELCLGLPGGDTVAPVTGNKRGFSETVDLKLNLNNEPANKEGSTTHDVVTFDSKEKSACPKDPAKPPAKAQVVGWPPVRSYRKNVMVSCQKSSGGPEAAAFVKVSMDGAPYLRKIDLRMYKSYDELSNALSNMFSSFTMGKHGGEEGMIDFMNERKLMDLVNSWDYVPSYEDKDGDWMLVGDVPWPMFVDTCKRLRLMKGSDAIGLAPRAMEKCKSRA”, “failed”.
On to “MMHHALHIKNGIVIDPKNGVKAEKMDIFVKNGKIVEESEVKGEDVKVIDANNKLVVAGGVDMHAHIAGSKINTGRTMRPEEMRVVRNIAGKFRAAVGRVLEHHHHHH”, for which the protein production entry was “not failed”.
As for “MMHSTVQHGGNKSGKSNVWANTNLAKTVAAVDEFKFGFPSGGLTTVSNKWWGRAEKGGREDGGGENTENGHVAACDETQNSLVAIRKRIAEEGREAVELGLHQGFGSKRPGKRDQALLFQIFNSAMPKDWVTPDSS”, the entry is “failed”.
As for “MMIDPELRPAFLPAGKLRAAINLGNPILAGTDAAGQAVGVSVDLAREFARRLNAGIELRVFDTAGQSVDAVTREEADIGFFAIDPARGAGIAFTGPYVLIEGAYLVRDDSPLQANEDVDRAGKRVTVGKGSAYDLHLTRALQHAEIVRAASSQAVVDTFLARRLDVAAGVKQQLQADARRVGGVRLLPGRFMVIRQAMGLPKARGDAAAACLDAFVESMKGNGFVAQALARHGIQGASVAPPGRDG”, the entry is “failed”; as for “MMIDPELRPAFLPAGKLRAAINLGNPILAGTDAAGQAVGVSVDLAREFARRLNAGIELRVFDTAGQSVDAVTREEADIGFFAIDPARGAGIAFTGPYVLIEGAYLVRDDSPLQANEDVDRAGKRVTVGKGSAYDLHLTRALQHAEIVRAASSQAVVDTFLARRLDVAAGVKQQLQADARRVGGVRLLPGRFMVIRQAMGLPKARGDAAAACLDAFVESMKGNGFVAQALARHGLEHHHHHH”, “failed”; as for “MMIIGINGSPRKNGNTIEMLKSALDGAKAQGAETELINLYDYNYKGCVSCFSCKLKGGRSYGKCALKDDLKPILEKIEKADAFILASPIYFGMVTGEMRSFMERLLFQYLVYDKDHSSLFNRKIKTGFIYTMNVPETYLDSVGYNKLFESNEATLKRIFGASEYILSTDTYQFDDYSKYEASMFDVEAKKKRREEVFPEDCKRAYEMGASFVKLEHHHHHH”, “failed”.
As for “MMINMNRKITTYQWWIATLAIVSIFLIILDFAAVIDINIPTSKWFWINDGIVVYFAINYFYHLSKSNDKKTFFKNHIYDLLIIIPIGMLFVVLNAFNLSSLVSYLRLLRLIRLAGLMGKLRQIFHTNGLWYVVFFTITFLLVGAEAFAISEHVSLDTAFWWVLSTASTVGYDGIFGKTIPPHSIVGKFVTLVMMLLGIGIVGMLTSSITSYLVRRTNGANTLETHDNIELILKKLDDIEQQNKELTYQNKKLQAEIQTLKGEKNPLMSYIR”, the entry is “failed”.
“MMISDLPEDMVEEILSRVSIISLGALRWNDLSKARVICKAEARQQFAGFMIKGSKEVSNTRLVVWNPYLGKIWSIQHRSAYHSENRYTLGYDNNRKPQNLEEQLAVLLHNWGAFAMEIWVTTNIEPNAKKHAVIFDSSLSCGSVACIIGETGNLRTVDLGVAAVPYRQLPVCSYAPSLEQINQGQELPLIGLTQIFMEQHKYWVSTFLDNLITKYG”: the protein production result is recorded as “failed”.
Take “MMIVYKGEKMQFIRVNTLKINPEVLKKRLENKGVVLEKTFLDYAFEVKKSPFSIGSTPEYLFGYYMPQSISSMIPPIVLNPREDDFILDMCAAPGGKTTHLAQLMKNKGTIVAVEISKTRTKALKSNINRMGVLNTIIINADMRKYKDYLLKNEIFFDKILLDAPCSGNIIKDKNRNVSEEDIKYCSLRQKELIDIGIDLLKKDGELVYSTCSMEVEENEEVIKYILQKRNDVELIIIKANEFKGINIKEGYIKGTLRVFPPNEPFFIAKLRKI”: the protein production result was “not failed”.
For “MMKEFTPAPDSASIVSVTDRVKPVALGMGVTSVHFLGDRAAFVGGEENVAFVDSQGEITTVAVHGGGILSTASDGKRLVMGGDDGKVVSLDAKGEVTLLATDPKRRWIDAVALHADGAFAWSAGKTATVKSGKTEEKSLEVPSTVGGLAFAPKGLRLAIAHYNGATLWFPNMAASAEFLPWAGSHHAVTFSPDNKFLVTAMHEPALHGWRLADNRHMRMTGYPGRVRSMSWSAGGKALATSGADTVILWPFGSKDGPMGKEPAMLAPLQARVSVVACHPKNDILAAGYSDGTVLMVRLEDGAEILVRRNGTPPVAALAWNAKGTLLAFADENGDGGLLELLEHHHHHH”, the protein production entry is listed as “not failed”.
As for “MMKIIAFVGMPASGKSEASRIAAEMGIPVIIMGDVIRKEVLKRGLEPNDSNTGMVATDLRKHEGMGAVARRCISQIRETGSELVVVDGVRGIAEVECFRKEFGKGFILISIYAPIEVRFSRVQKRGRSDDMNSIEGLRHRDERELSWGMGEAIDASNVEIENNFTLETFRKDVRDVLSNYLEADLEK”, the entry is “not failed”; as for “MMKKLFLDTHSASGEIKLTDGLLYWFPQFLTPIQADQAFQQMLTHLDWQQKSIRLFGKSVLQPRLIAWYGEKGYRYSGLSLSAQPFPPPLLTLKTQCEQAAQAPFNSVLANLYRDGQDSMGWHQDNEPELGSNPVIASLSLGESRRFLLRHHKDHALQVECELNHGDLLIMAGNTQHFWQHAIPKTRQTKQTRINLTFRNILLEHHHHHH”, “not failed”; as for “MMKKTAAIISACMLTFALSACSGSNYVMHTNDGRTIVSDGKPQTDNDIGMISYKDANGNKQQINRTDVKEMVELEQLEHHHHHH”, “failed”.
As for “MMKLKKVLVLGGTRFFGKHLVEALLKDGHDVTIATRGITEDSFGSRVKRLIVDREDEKQLAERLEDKSYDIVYDNLCYSSNAATIICEVLRGKTRKYVMTSSMAVYDPAINLSEEDFNPYEYTIAYGGRNDFNYGEGKRVAEAVVFQQATFPVVAVRFPVVIGENDYTKRLQFYVEHIVREEPVAVNHLDGELSFIHEEEAGGFLAWCGMEDIEGPINACSNGVVSSREIIHFIEENTGIKPLVQEVGDHVAPYNEVTNCTLHNGKANELGFPFRELKIEIEKVLRYYIHATK”, the entry is “failed”; as for “MMKLLSFDEACQWFDSLPAHKRIATLSPYYVLLDALRDTRLLATYIGFRQGDVFWMHSVHCSAAMAGEVIDLQSPYGYGGPISNCDDPVFLNMVWDLYVEFCARQGWLAEFVRFHPLGGVSSSYGGTIVVDRLTVAIDLTGPNIRSIYSTRCRTAVRKAINNGLNVRVGSERELREIFPHFYRDGMRAIAADKFYLFNDLYFSGFSTWKCATLLICHCDDDWLSAGIFLKDGNVMEYHLSATTPAGRNLGATNLLLDAAAHLGQEQGCSFLYLGGGTDSEKNNPLLFFKSGFSAATYPFLIGFTAFNQDKYQALREKFISDHKPTDRFLFYR”, “failed”.
On to “MMKLMFASDIHGSLPATERVLELFAQSGAQWLVILGDVLNHGPRNALPEGYAPAKVAERLNEVAHKVIAVRGNCDSEVDQMLLHFPITAPWQQVLLEKQRLFLTHGHLFGPENLPALNQNDVLVYGHTHLPVAEQRGEIFHFNPGSVSIPKGGNPASYGMLDNDVLSVIALNDQSIIAQVAINP”, for which the protein production result is reported as “not failed”.
As for “MMKMMTRVLSSPSSHVSSLKYSPRRVIRASRDHLRAETLKSHQLPSGSSSTSLCSCGRKHFLEAASPTMPFLPICSPNASRSKDVSETFHPQRPDWYKELFAWFLSTGMRSYEAEVSLCDLNASFYDPFLENDRSFSCFMFVLFGKIAEYKRKLFEKLAGKAETVLEIGVGTGPNLKYFAGNENVCVFGMDPNHKMEKYACESAREAGMKPENFRFMHGVSKLLCFDL”, the entry is “failed”.
As for “MMKPSVSAAILAAGTSTRMNEMKQLAKIQGTYMLKYVIDQVSNHPFQHIFVIVGHQADIVMKMIQVEDKRVQWLVNDQYKQGQSTSFKLAMEQARQYGDAVMMFLADQPLIEKETVNIVLNEGITRVQEEPFIVRPMYEKKEGHPVYWGNIHALDCSAVNGDKGGKTLMEELERMLIPVHDQGVLVDVDTCEDYKKVNDLMKRKSPSTHLEHHHHHH”, the entry is “not failed”; as for “MMKRHNILTVLAVLLLTFAACDKNSAPGFSFTTDSILTLTFDKELDAAFVGVGTQNYNPVGMRRSGDTLFIANRAEGSDGVWVVRASTGELLYSLTGWTYNGKNEKFDNQVMDVAVSSDYIFVVNRSSRIDLFRRNDYSYVTTIGRTGWQSSSLLQCEAAEVAGDKLFIRDKQKIKVVQISDCTPENRFKVPVFAQNTDSTSSNNGFNLESVARHEGLIYVSDYETSRILVIDPATVAVKGEPVRFLRSYRMPNKPLSMGFFQNEMYVVCANNCIVRVDLRTGKELGSYSSFAGGVGLGTPGRLLFHNDTFYLAGRNANAPRLIQGKVMFVEISELD”, “failed”.
As for “MMLRRLALSAATGLMLALPALAETVSDFRLPNGLEVVVIEDHRAPVVTHMVWYRVGAADEPPGHSGIAHFLEHLMFKGTDEMSAGEFSATVEAQGGDDNAFTSWDYTAYFQRVAADRLDLMMKMEADRMRDLQMTEEDVRTERQVVLEERSQRTDSDPGAVFSEQSRAAAYLNHPYGIPIIGWRHEIEQLGREDAFSFYRTYYAPNNAILVVAGDVDPAEVRRMAEEHYGALEPTPNLPERLRPQEPPQLAERRLTFSDPRVAQPYVSRSYLAATRETGAQEKAAALTILAELLGGSPTTSLLSRELQFGPEPKAVWAQAYYDGGGLDSGTFGLAVVPAAGVSLQEAEDAMDAVVARFLKEGPDAEDFERIKTQLGAQDIYSRDNVDGLARRYGAALTTGLTVADVQAWPEVLQAVTPDEVMAAAREVFDRRRAVTGWLMQEDEEKSQ”, the entry is “failed”; as for “MMNETLKVIAERYSCRDFKNEMPSDELLQAIAEAAIQAPSGMNRQAWRVIVVKNKELMQEMEAEGLAYLAGMEDQSSYNRIMERGGRLFYGAPCMIVVPIDPTQYGPALVDCGILCQTIALAATSLGIANIMCGYTGLAFASGLRAEEFSKRLGFPEGYAFGCSVLLGHANTTKPPHVPDKDKITYVE”, “not failed”.
As to “MMNRILLIFLILMSTCFAGCFEQNNLEKSQEMAEIGFAYIGIDNDKAIEYYEKAIKLNPDDANAISFLGTLYDGEGDREKAYEYLTKALEMEPKNPWMYYNLGLYYLNHDDNMAIGCFEKALRIDPENECCWSQLGYTYYDIGDYTNSKLNFEKAYEINPKDQYSDMIEKCNEGI”, the protein production entry is “failed”.

These data come from a protein production outcome set (Wang et al. 2014).
